How the values were obtained:
Assay in all cases: holdup assay
Design in all cases: key: below the threshold = too weak to quantify, mostly under pKd 3.1 to 4
MAGI2_4, Q86UL8 = target: MAGI2_4, Q86UL8
Inadl_9, Q8NI35 = target: Inadl_9, Q8NI35
DLG1_3, Q12959 = target: DLG1_3, Q12959
MPDZ_5, O75970 = target: T1, MPDZ_5, O75970
T1 sequence (O75970 695-796, limits assumed, looked up): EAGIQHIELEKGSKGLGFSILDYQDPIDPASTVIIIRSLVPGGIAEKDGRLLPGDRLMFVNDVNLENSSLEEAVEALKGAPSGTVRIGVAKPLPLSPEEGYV

PARD3B_1, Q8TEW8 = target: T2, PARD3B_1, Q8TEW8
T2 sequence (Q8TEW8 196-299, limits assumed, looked up): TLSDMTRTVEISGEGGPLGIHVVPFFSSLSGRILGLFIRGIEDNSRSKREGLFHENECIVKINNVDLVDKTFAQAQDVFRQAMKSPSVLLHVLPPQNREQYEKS

RAPGEF6, Q8TEU7 = target: T3, RAPGEF6, Q8TEU7
T3 sequence (Q8TEU7 525-625, limits assumed, looked up): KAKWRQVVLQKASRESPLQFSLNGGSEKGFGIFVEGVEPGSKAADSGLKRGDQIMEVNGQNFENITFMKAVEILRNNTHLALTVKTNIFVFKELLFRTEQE

DLG5_1, Q8TDM6 = target: DLG5_1, Q8TDM6
LNX1_1, Q8TBB1 = target: LNX1_1, Q8TBB1
SHANK1, Q9Y566 = target: T4, SHANK1, Q9Y566
T4 sequence (Q9Y566 658-767, limits assumed, looked up): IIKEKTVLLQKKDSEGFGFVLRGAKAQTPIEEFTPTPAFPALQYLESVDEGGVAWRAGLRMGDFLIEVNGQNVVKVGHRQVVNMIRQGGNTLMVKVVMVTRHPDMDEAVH

ARHGAP21, Q5T5U3 = target: T5, ARHGAP21, Q5T5U3
T5 sequence (Q5T5U3 45-169, limits assumed, looked up): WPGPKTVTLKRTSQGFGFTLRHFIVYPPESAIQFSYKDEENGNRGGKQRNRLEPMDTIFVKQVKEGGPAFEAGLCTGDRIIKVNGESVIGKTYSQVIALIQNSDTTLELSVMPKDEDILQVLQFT

SCRIB_1, Q14160 = target: SCRIB_1, Q14160
NHERF4_2, Q86UT5 = target: NHERF4_2, Q86UT5
APBA1_1, Q02410 = target: T6, APBA1_1, Q02410
T6 sequence (Q02410 651-752, limits assumed, looked up): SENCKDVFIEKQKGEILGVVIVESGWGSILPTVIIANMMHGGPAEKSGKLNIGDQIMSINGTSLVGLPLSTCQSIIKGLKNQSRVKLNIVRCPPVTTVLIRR

APBA2_1, Q99767 = target: T7, APBA2_1, Q99767
T7 sequence (Q99767 563-664, limits assumed, looked up): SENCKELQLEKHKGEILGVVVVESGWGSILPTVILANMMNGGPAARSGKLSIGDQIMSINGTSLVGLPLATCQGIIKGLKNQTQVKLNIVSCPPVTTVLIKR

NHERF4_1, Q86UT5-2 = target: NHERF4_1, Q86UT5-2
GRID2IP_1, A4D2P6 = target: GRID2IP_1, A4D2P6
GRASP, Q7Z6J2 = target: GRASP, Q7Z6J2
GOPC, Q9HD26 = target: GOPC, Q9HD26
IL16_1, Q14005 = target: IL16_1, Q14005
MPDZ_10, O75970 = target: T8, MPDZ_10, O75970
T8 sequence (O75970 1624-1722, limits assumed, looked up): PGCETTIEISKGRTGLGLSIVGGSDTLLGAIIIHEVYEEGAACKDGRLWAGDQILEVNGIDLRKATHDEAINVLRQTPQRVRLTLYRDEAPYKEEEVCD

FRMPD2_2, Q68DX3 = target: FRMPD2_2, Q68DX3
AHNAK1, Q09666 = target: AHNAK1, Q09666
MPDZ_12, O75970 = target: T9, MPDZ_12, O75970
T9 sequence (O75970 1857-1958, limits assumed, looked up): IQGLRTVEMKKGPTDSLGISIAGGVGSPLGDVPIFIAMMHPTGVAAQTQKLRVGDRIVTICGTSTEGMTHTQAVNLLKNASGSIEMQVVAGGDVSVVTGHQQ

RADIL, Q96JH8 = target: T10, RADIL, Q96JH8
T10 sequence (Q96JH8 971-1071, limits assumed, looked up): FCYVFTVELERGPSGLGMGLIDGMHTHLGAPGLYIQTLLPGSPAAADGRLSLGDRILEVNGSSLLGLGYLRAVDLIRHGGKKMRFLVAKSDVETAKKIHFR

LAP2, Q96RT1 = target: LAP2, Q96RT1
MAGI3_2, Q5TCQ9 = target: MAGI3_2, Q5TCQ9
[1] = plain residues with an end cap or a label only (N-terminal biotin on a linker: ttds)
[2] = plain residues with an end cap or a label only (N-terminal biotin on a linker: ado-ado)

Sequence of GRASP, Q7Z6J2 (Q7Z6J2 96-193): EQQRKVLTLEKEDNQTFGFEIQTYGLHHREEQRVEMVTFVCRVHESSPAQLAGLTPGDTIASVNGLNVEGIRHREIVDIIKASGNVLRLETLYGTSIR
Sequence of FRMPD2_2, Q68DX3 (Q68DX3 944-1038): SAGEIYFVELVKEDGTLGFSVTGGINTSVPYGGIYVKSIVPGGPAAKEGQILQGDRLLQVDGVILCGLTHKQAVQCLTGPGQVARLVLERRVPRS
Sequence of DLG5_1, Q8TDM6 (Q8TDM6 617-713): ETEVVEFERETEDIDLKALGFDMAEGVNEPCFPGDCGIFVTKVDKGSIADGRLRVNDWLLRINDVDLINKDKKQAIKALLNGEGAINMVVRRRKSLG
Sequence of Inadl_9, Q8NI35 (Q8NI35 1530-1615): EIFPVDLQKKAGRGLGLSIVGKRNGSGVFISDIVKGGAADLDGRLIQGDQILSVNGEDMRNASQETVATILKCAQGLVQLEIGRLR
Sequence of IL16_1, Q14005 (Q14005 210-306): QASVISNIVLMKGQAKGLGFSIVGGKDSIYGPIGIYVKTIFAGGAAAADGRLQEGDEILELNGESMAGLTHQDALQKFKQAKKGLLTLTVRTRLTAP
Sequence of GRID2IP_1, A4D2P6 (A4D2P6 1-87): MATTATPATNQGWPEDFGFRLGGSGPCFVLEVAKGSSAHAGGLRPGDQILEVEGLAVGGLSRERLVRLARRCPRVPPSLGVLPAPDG
Sequence of AHNAK1, Q09666 (Q09666 4-100): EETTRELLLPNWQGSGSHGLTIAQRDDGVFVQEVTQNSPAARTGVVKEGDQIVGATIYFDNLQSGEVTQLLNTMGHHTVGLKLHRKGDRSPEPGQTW
Sequence of SCRIB_1, Q14160 (Q14160 718-814): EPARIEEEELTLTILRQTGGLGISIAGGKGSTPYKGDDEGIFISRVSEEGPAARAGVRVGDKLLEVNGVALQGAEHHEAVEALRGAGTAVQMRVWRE
Sequence of NHERF4_1, Q86UT5-2 (Q86UT5 other isoform, or with tags, fused parts or gaps): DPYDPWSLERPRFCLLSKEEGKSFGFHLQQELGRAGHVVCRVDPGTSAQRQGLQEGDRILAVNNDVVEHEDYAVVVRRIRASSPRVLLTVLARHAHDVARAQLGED
Sequence of MAGI2_4, Q86UL8 (Q86UL8 772-865): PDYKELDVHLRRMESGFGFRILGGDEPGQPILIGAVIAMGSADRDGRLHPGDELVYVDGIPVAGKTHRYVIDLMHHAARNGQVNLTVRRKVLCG
Sequence of LNX1_1, Q8TBB1 (Q8TBB1 261-371): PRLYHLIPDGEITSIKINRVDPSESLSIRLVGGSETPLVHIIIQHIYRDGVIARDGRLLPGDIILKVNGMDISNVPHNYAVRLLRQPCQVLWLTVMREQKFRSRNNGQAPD
Sequence of LAP2, Q96RT1 (Q96RT1 other isoform, or with tags, fused parts or gaps): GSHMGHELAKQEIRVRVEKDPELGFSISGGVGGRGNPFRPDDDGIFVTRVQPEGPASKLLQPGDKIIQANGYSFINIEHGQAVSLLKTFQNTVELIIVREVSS
Sequence of DLG1_3, Q12959 (Q12959 457-571): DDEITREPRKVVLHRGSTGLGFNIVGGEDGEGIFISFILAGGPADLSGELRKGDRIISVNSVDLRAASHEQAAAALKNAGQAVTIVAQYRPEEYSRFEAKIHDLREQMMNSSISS
Sequence of NHERF4_2, Q86UT5 (Q86UT5 220-308): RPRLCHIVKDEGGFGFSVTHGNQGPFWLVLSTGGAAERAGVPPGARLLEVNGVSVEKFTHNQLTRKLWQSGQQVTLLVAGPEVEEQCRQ
Sequence of MAGI3_2, Q5TCQ9 (Q5TCQ9 398-503): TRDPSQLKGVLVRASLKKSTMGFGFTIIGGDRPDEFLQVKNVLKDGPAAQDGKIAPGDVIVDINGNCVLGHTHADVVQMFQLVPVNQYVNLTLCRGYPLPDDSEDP

## PKRPFVESNV [TANC2, Q9HCD6]
MAGI2_4, Q86UL8; [1]
  pKd: below the threshold
Inadl_9, Q8NI35; [1]
  pKd: below the threshold
DLG1_3, Q12959; [1]
  pKd: 3.77
MPDZ_5, O75970; [1]
  pKd: below the threshold
PARD3B_1, Q8TEW8; [1]
  pKd: below the threshold
RAPGEF6, Q8TEU7; [1]
  pKd: below the threshold
DLG5_1, Q8TDM6; [1]
  pKd: below the threshold
LNX1_1, Q8TBB1; [1]
  pKd: 3.57
SHANK1, Q9Y566; [1]
  pKd: below the threshold
ARHGAP21, Q5T5U3; [1]
  pKd: below the threshold
SCRIB_1, Q14160; [1]
  pKd: 4.75
NHERF4_2, Q86UT5; [1]
  pKd: below the threshold
APBA1_1, Q02410; [1]
  pKd: below the threshold
APBA2_1, Q99767; [1]
  pKd: below the threshold
NHERF4_1, Q86UT5-2; [1]
  pKd: below the threshold
GRID2IP_1, A4D2P6; [1]
  pKd: below the threshold
GRASP, Q7Z6J2; [1]
  pKd: below the threshold
GOPC, Q9HD26; [1]
  pKd: below the threshold
IL16_1, Q14005; [1]
  pKd: 4.66
MPDZ_10, O75970; [1]
  pKd: 3.51
FRMPD2_2, Q68DX3; [1]
  pKd: below the threshold
AHNAK1, Q09666; [1]
  pKd: below the threshold
MPDZ_12, O75970; [1]
  pKd: below the threshold
RADIL, Q96JH8; [1]
  pKd: below the threshold
LAP2, Q96RT1; [1]
  pKd: 4.74
MAGI3_2, Q5TCQ9; [1]
  pKd: 4.55

## GFGEERESIL [KIDINS220, Q9ULH0]
MAGI2_4, Q86UL8; [2]
  pKd: below the threshold
Inadl_9, Q8NI35; [2]
  pKd: below the threshold
DLG1_3, Q12959; [2]
  pKd: below the threshold
MPDZ_5, O75970; [2]
  pKd: below the threshold
PARD3B_1, Q8TEW8; [2]
  pKd: 4.57
RAPGEF6, Q8TEU7; [2]
  pKd: below the threshold
DLG5_1, Q8TDM6; [2]
  pKd: below the threshold
LNX1_1, Q8TBB1; [2]
  pKd: 3.88
SHANK1, Q9Y566; [2]
  pKd: 3.87
ARHGAP21, Q5T5U3; [2]
  pKd: 3.9
SCRIB_1, Q14160; [2]
  pKd: below the threshold
NHERF4_2, Q86UT5; [2]
  pKd: below the threshold
APBA1_1, Q02410; [2]
  pKd: below the threshold
APBA2_1, Q99767; [2]
  pKd: below the threshold
NHERF4_1, Q86UT5-2; [2]
  pKd: 3.77
GRID2IP_1, A4D2P6; [2]
  pKd: below the threshold
GRASP, Q7Z6J2; [2]
  pKd: 3.48
GOPC, Q9HD26; [2]
  pKd: 3.55
IL16_1, Q14005; [2]
  pKd: 4.48
MPDZ_10, O75970; [2]
  pKd: below the threshold
FRMPD2_2, Q68DX3; [2]
  pKd: below the threshold
AHNAK1, Q09666; [2]
  pKd: below the threshold
MPDZ_12, O75970; [2]
  pKd: below the threshold
RADIL, Q96JH8; [2]
  pKd: 3.61
LAP2, Q96RT1; [2]
  pKd: below the threshold
MAGI3_2, Q5TCQ9; [2]
  pKd: below the threshold

## VNKVWDQSSV [CIT, O14578]
MAGI2_4, Q86UL8; [1]
  pKd: below the threshold
Inadl_9, Q8NI35; [1]
  pKd: below the threshold
DLG1_3, Q12959; [1]
  pKd: 3.49
MPDZ_5, O75970; [1]
  pKd: below the threshold
PARD3B_1, Q8TEW8; [1]
  pKd: below the threshold
RAPGEF6, Q8TEU7; [1]
  pKd: below the threshold
DLG5_1, Q8TDM6; [1]
  pKd: below the threshold
LNX1_1, Q8TBB1; [1]
  pKd: below the threshold
SHANK1, Q9Y566; [1]
  pKd: 3.57
ARHGAP21, Q5T5U3; [1]
  pKd: below the threshold
SCRIB_1, Q14160; [1]
  pKd: 5.04
NHERF4_2, Q86UT5; [1]
  pKd: below the threshold
APBA1_1, Q02410; [1]
  pKd: below the threshold
APBA2_1, Q99767; [1]
  pKd: below the threshold
NHERF4_1, Q86UT5-2; [1]
  pKd: below the threshold
GRID2IP_1, A4D2P6; [1]
  pKd: below the threshold
GRASP, Q7Z6J2; [1]
  pKd: 4.33
GOPC, Q9HD26; [1]
  pKd: 3.77
IL16_1, Q14005; [1]
  pKd: 3.68
MPDZ_10, O75970; [1]
  pKd: below the threshold
FRMPD2_2, Q68DX3; [1]
  pKd: below the threshold
AHNAK1, Q09666; [1]
  pKd: below the threshold
MPDZ_12, O75970; [1]
  pKd: below the threshold
RADIL, Q96JH8; [1]
  pKd: below the threshold
LAP2, Q96RT1; [1]
  pKd: 4.04
MAGI3_2, Q5TCQ9; [1]
  pKd: below the threshold

## SEKHFRETEV [HTLV1-TAX1, P03409]
MAGI2_4, Q86UL8; [1]
  pKd: 4.49
Inadl_9, Q8NI35; [1]
  pKd: below the threshold
DLG1_3, Q12959; [1]
  pKd: 5.22
MPDZ_5, O75970; [1]
  pKd: below the threshold
PARD3B_1, Q8TEW8; [1]
  pKd: below the threshold
RAPGEF6, Q8TEU7; [1]
  pKd: below the threshold
DLG5_1, Q8TDM6; [1]
  pKd: below the threshold
LNX1_1, Q8TBB1; [1]
  pKd: 3.89
SHANK1, Q9Y566; [1]
  pKd: below the threshold
ARHGAP21, Q5T5U3; [1]
  pKd: below the threshold
SCRIB_1, Q14160; [1]
  pKd: 5.63
NHERF4_2, Q86UT5; [1]
  pKd: below the threshold
APBA1_1, Q02410; [1]
  pKd: below the threshold
APBA2_1, Q99767; [1]
  pKd: below the threshold
NHERF4_1, Q86UT5-2; [1]
  pKd: below the threshold
GRID2IP_1, A4D2P6; [1]
  pKd: below the threshold
GRASP, Q7Z6J2; [1]
  pKd: below the threshold
GOPC, Q9HD26; [1]
  pKd: below the threshold
IL16_1, Q14005; [1]
  pKd: 4.44
MPDZ_10, O75970; [1]
  pKd: below the threshold
FRMPD2_2, Q68DX3; [1]
  pKd: below the threshold
AHNAK1, Q09666; [1]
  pKd: 3.92
MPDZ_12, O75970; [1]
  pKd: below the threshold
RADIL, Q96JH8; [1]
  pKd: below the threshold
LAP2, Q96RT1; [1]
  pKd: 4.99
MAGI3_2, Q5TCQ9; [1]
  pKd: 4.99
